Data on seven molecules can be found in publication PMC9700705, “A non-carboxylating pentose bisphosphate pathway in halophilic archaea” (Communications Biology, 2022).

Series [1] addresses T1, Hx-RbsK (ATP-R1PK) (Halopiger xanaduensis, UniProt F8D4I6).
T1 construct: gene Halxa_1682; recombinant from E. coli Rosetta (DE3), codon-optimised synthetic gene in pET-21a(+) NdeI/BamHI, purified on anion exchange, hydroxyapatite and gel filtration
The series can be described thus: PK/LDH-coupled NDP quantification. It is filed as biochemical. To be noted: 25 mM R1P, 20 mM MgCl2, 0.8 M NaCl, 42 °C.

Series [2] concerns the target T2, glycolaldehyde reductase (GaR, VNG_6270G) (Halobacterium salinarum, UniProt Q9HHR2).
T2 construct: native protein purified from H. salinarum cell-free extract (hydroxyapatite, Superdex200), identified by LC-MS; plasmid-encoded; GenBank entry is the codon-optimised recombinant gene (Hs-GaR)
T2 sequence (Q9HHR2 1-365): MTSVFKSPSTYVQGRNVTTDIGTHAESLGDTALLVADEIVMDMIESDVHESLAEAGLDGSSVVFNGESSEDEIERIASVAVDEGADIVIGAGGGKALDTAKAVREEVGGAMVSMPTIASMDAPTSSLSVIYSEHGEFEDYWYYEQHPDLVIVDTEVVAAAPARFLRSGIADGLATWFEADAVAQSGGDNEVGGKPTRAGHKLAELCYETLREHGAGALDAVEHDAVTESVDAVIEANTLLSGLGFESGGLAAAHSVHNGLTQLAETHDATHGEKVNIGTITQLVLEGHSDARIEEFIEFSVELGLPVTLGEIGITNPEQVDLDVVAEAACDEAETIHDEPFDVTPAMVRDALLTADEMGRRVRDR
The series can be described thus: NADH consumption at […] nm. The note with it: 0.2 mM NADH, 50 mM MES-NaOH pH 6.0, 3 M KCl, 40 °C; fit with substrate inhibition; substrate inhibition constant, second site. It is filed as biochemical.

Series [3] has as its target T1, Hx-RbsK (ATP-R1PK). Nature of the series: PK/LDH-coupled NDP quantification; HPLC of product R15P. It is filed as biochemical. The note with it: 20 mM MgCl2, 2 M KCl, pH 8.3-8.4, 47 °C.
Substrate in series [4]: O=CCO
The series can be described thus: purified protein. It is filed as biochemical, Halobacterium salinarum. The note with it: 0.2 mM NADH, 50 mM MES-NaOH pH 6.0, 3 M KCl, 40 °C, fit with substrate inhibition.

Substrate in series [5]: O=CCO
Nature of the series: HPLC of Ru1P formed (condensation direction). It counts as biochemical, Halopiger xanaduensis. The note with it: 20 mM DHAP, 50 mM Tris-HCl pH 8.0, 2 M KCl, 1 mM ZnCl2, 47 °C.

Substrate in series [6]: O=C(CO)COP(=O)(O)O
The series can be described thus: HPLC of Ru1P formed (condensation direction). It is filed as biochemical, Halopiger xanaduensis. To be noted: 50 mM glycolaldehyde, 50 mM Tris-HCl pH 8.0, 2 M KCl, 1 mM ZnCl2, 47 °C.

Substrate in series [7]: O=P(O)(O)O
The series can be described thus: purified protein. To be noted: 1 mM guanosine, 2 M KCl, 30 °C.

Substrate in series [8]: Nc1nc2c(ncn2[C@@H]2O[C@H](CO)[C@@H](O)[C@H]2O)c(=O)[nH]1
Nature of the series: purified protein. It is filed as biochemical, Halorubrum lacusprofundi. The note with it: 50 mM sodium phosphate pH 7.5, 2 M KCl, 30 °C.

Substrate in series [9]: O=C(COP(=O)(O)O)[C@H](O)[C@H](O)COP(=O)(O)O
The series can be described thus: purified protein. It counts as biochemical, Halopiger xanaduensis. To be noted: 50 mM Tris-HCl pH 7.5, 2 M KCl, 5 mM MgCl2.

T1 sequence (F8D4I6 whole entry): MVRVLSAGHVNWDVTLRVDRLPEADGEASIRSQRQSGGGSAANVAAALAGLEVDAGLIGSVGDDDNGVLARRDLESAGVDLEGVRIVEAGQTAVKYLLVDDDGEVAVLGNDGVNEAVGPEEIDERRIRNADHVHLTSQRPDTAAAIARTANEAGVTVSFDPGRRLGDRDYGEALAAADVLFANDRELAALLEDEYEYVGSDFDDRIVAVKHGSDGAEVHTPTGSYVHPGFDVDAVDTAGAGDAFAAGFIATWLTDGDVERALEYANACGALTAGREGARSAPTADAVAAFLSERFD

Take `Nc1ncnc2c1ncn2[C@@H]1O[C@H](COP(=O)(O)OP(=O)(O)OP(=O)(O)O)[C@@H](O)[C@H]1O` [ATP]: the “PK/LDH-coupled NDP quantification” value on Hx-RbsK (ATP-R1PK) [1] was “Using R1P as the phosphate acceptor, the enzyme preferred ATP among NTPs”.
In the case of `O=CCO` [glycolaldehyde], the Ks2 in series [2] worked out at 35 ± 8 mM.
For `O=P(O)(O)O[C@H]1O[C@H](CO)[C@@H](O)[C@H]1O` [R1P], on Hx-RbsK (ATP-R1PK) [3], the “PK/LDH-coupled NDP quantification; HPLC of product R15P” value was “HPLC analysis of the Hx-RbsK reaction product indicated that R15P was generated from R1P”.

B1: glycolaldehyde reductase (GaR, VNG_6270G) (Halobacterium salinarum NRC-1) (protein)
chain: T2 sequence (Q9HHR2 1-365)
notes: native protein purified from H. salinarum cell-free extract (hydroxyapatite, Superdex200), identified by LC-MS; plasmid-encoded; GenBank entry is the codon-optimised recombinant gene (Hs-GaR)
A word on the Km: it is the substrate concentration at which the rate is half of its maximum. Consider B1, for which the Km in the series “purified protein [4]” is 10 ± 2 mM.

B2: Hx-FucA (Ru1P aldolase) (Halopiger xanaduensis SH-6) (protein)
chain: MILETERRAVVEHASELADLTPGRTGNLSVRGSGDDTDAGPGDAFAITPTGVPYDGFDVEDVPVVGTDGERLDGEMAPSSEVPMHSAIYRREDVGAIVHTHSPWATALAVANQPLPPIHYMIVAVGKRVPVAEYAPYGTDELAENIVTAMTEAGSTASLIENHGLVVTAPDLETALENTHHVESLARLYLESRSAGLEPQTLTDDQLETVLEKFESYGQ
notes: recombinant from E. coli Rosetta (DE3), codon-optimised synthetic gene in pET-21a(+) NdeI/BamHI, purified on anion exchange, hydroxyapatite and gel filtration
Turning to B2, the results for the Km in [5] and in [6] were 3.4 ± 0.3 mM and 3.5 ± 0.3 mM, respectively.

B3: Hl-Urdpase1 (guanosine phosphorylase) (Halorubrum lacusprofundi ATCC 49239) (protein)
chain: MAKQPHLLVEEGDVHEIAIIPGDPGRVDRIADLCDDSELVAQNREYKIVNASYDGTDLTICSTGIGCPSAAIAVEELSRVGVETFLRCGTCGALQADMEVGDMVVATGAAKEEGTSKRYESVEYPAVPDYDALTELVGAAEDNDEEIHVGPIVSDDAFYNESDEYVDDWNDANLLAIEMEAATVFALARRKGLRAGAICTVDGNLVAGNQKGADSDDELPEKAKDNVERAIRITLNAVTAL
notes: recombinant from E. coli BL21-CodonPlus(DE3)-RIL, codon-optimised synthetic gene in pET-21a(+) NdeI/BamHI, purified on hydroxyapatite and gel filtration
On to B3, for which the Km in the series “purified protein [7]” was found to be 4.8 ± 0.8 mM; in “purified protein [8]” it was 0.056 ± 0.01 mM.

B4: Hx-HAD hydrolase (RuBP phosphatase) (Halopiger xanaduensis SH-6) (protein)
chain: MATAVLFDLDNTLYPYPPCNQAGKAAALERAQELGYDFDHESFAEFYQAGRREVKRDTGGTAASHERYLYFKRALELHTGSPRPGDALALGDAYWSAYLEEMSLVPDAKETLEELQEQGVDIAITTNLTTTIQLAKLERLGLTDYVDLVLTSEETGQEKPASVMFTLPLARLDSRASEAVMVGDDLEADIAGANAVGLETVLFDPSEESDATESADRAATERQADHSIDTLGELTDLVS
notes: recombinant from E. coli Rosetta (DE3), codon-optimised synthetic gene in pET-21a(+) NdeI/BamHI, purified on hydroxyapatite and gel filtration
As to B4, the Km in the series “purified protein [9]” was 2.2 ± 0.5 mM.
